Measurements from article doi:10.1101/404996 (bioRxiv, 2018).

Target: the molecule itself
Assay: other fluorescence titration

B1: HIV-1 protease, pseudo wild type (pWT) (enzyme)
chain: not shown
In the case of B1, the Kd is reported as less than 250 nM.

B2: HIV-1 protease Flap+(I54) (L10I, G48V, V82A on the pWT backbone) (enzyme)
chain: not shown
B2 gave a Kd of less than 250 nM.

B3: HIV-1 protease Flap+(I54A) (L10I, G48V, I54A, V82A on the pWT backbone) (enzyme)
chain: not shown
B3 was tested, and the Kd was less than 250 nM.

B4: HIV-1 protease Flap+(I54V) (L10I, G48V, I54V, V82A on the pWT backbone) (enzyme)
chain: not shown
B4 was tested, and the Kd was less than 250 nM.
